In the nanobody polyreactivity screen of Harvey et al. (2022):

Experiment: yeast display, Sf9 membrane polyspecificity reagent, FACS + sequencing; frameworks hold sequencing errors
Method in brief: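 A nanobody's polyreactivity label depends on the gate it was sorted from. Yeast display cells were stained with 10% biotinylated, detergent-solubilized Sf9 membrane reagent for 1 hour at 4 °C, enriched on streptavidin microbeads and sorted by FACS. The low and high (top ~1%) gates were set on anti-HA fluorescence for expression and streptavidin fluorescence for reagent binding.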

Sequence | polyreactivity (PSR sort gate)
QVQLVESGGGLVQAGGSLRLSCAASGLTFEWYAMGWYRQAPGKERELVAAISWNGGSTYYADSVKGRFTISRDNAKNTVYLQMNSLKPEDTAVYYCATSSPRRYYWGQGTQVTVSS | high polyreactivity
QVQLVESGGGLVQAGGSLRLSCAASGLTFEWYTMGWYRQAHGKEREMVAVITVSGSSTYYADSVKGRFTISRDNAKNTVYLQMNSLKPEDTAVYYCNADWSFYSYTLYDYWGQGSQVTVSS | low polyreactivity
QVQLVESGGGLVQAGGSLRLSCAASGLTFEYYDMGWYRQAPGKERELVAAITGSDDSTYADSVKGRFTISRDNAKNTVYLQMNSLKPEDTAVYYCAASYRAWSGNYWGQGTQVTVSS | high polyreactivity
QVQLVESGGGLVQAGGSLRLSCAASGLTFFRNAMGWYREATGKERELVATITSTSSTNYADSVKGRFTISRDNAKNSVYLQMNSLIPEDTAVYYCAARTVGRKAGFDYWGQGTQVTVSS | high polyreactivity
QVQLVESGGGLVQAGGSLRLSCAASGLTFGAYAMGWYRQAPGKEREFVAAITYSGGSTNYADSVKGRFTISRDNAKNTVYLQMNSLKPEDTAVYFCNAGYYSPWAFYPYAYWGQGTQVTVSS | high polyreactivity
QVQLVESGGGLVQAGGSLRLSCAASGLTFGAYAMGWYRQAPGKERELVAAISDSGGTTYYADSVKGRFTISRDNAKNTVYLQMNSLKPEDTAVYYCAAVKSDVRYRYDYYWGQGTQVTVSS | low polyreactivity
QVQLVESGGGLVQAGGSLRLSCAASGLTFGGNAMGWYRPAPGKERELVAAISWSDHTTDYADSVKGRFTISRDKSKNSVYFQMKRLKPEDTAVYYCAARLPFEHVDYWGQGTQVTVSS | low polyreactivity
QVQLVESGGGLVQAGGSLRLSCAASGLTFGGNAMGWYRQAPGKERELVAAISWNGGRTYYADSVKGRFTISRDNAKNTVDLQMNSLKPEDTAVYYCNTPVFSKSSRKYYYWGQGTQVTVSS | high polyreactivity
QVQLVESGGGLVQAGGSLRLSCAASGLTFGGNARGWYRQAPGNERELVAPISSRGGSTYYADSVKGRFTISRDNAKNTVYLQMNSLKPEDTAVYYCAAGNRYGVRQLYQIVTRYYWGQGTQVTVSS | high polyreactivity
QVQLVESGGGLVQAGGSLRLSCAASGLTFGNNAMGWYRQAPGKERELVAAISSDGTTYYADSVKGRFTISRDNAKNTVYLQMNSLKPEDTAVYYCNAAAEISSFDYDYWGQGTQVTVSS | low polyreactivity
QVQLVESGGGLVQAGGSLRLSCAASGLTFGPYAMGWYRQAPGKERELVAAITSGGNTNYADSVKGRYTISRDNAKNTVYLQMNSLKPEETAVYYCATSYYLAYRSITPYDYWGQGTQVTVSS | low polyreactivity
QVQLVESGGGLVQAGGSLRLSCAASGLTFGRYAMGWYIQATGKERQLVASISQRGGSTYYADSVKGRFTISRDNAKNTVYLQMNSLKPEDTAVYYCNARVRDIYRYSMDSWGQGTQVTVSS | low polyreactivity
QVQLVESGGGLVQAGGSLRLSCAASGLTFGSNAMGWYRQAPGKERELVAAITSSGGRTYYADSVKGRFTISRDNAKNTVYLQMNSLKPEVTAVYYCAAVYQILLYFPGRYDYWGQGTQVTVSS | low polyreactivity
QVQLVESGGGLVQAGGSLRLSCAASGLTFGTNAMGWYRQAPGKERELVAAISTSSGSTYYADSVKGRFTISRDNAKNTVYLQMNSLKPEDTAVYYCAAVTVTKLSYYRYYYWGQGTQVTVSS | low polyreactivity
QVQLVESGGGLVQAGGSLRLSCAASGLTFGVYAMGWYRPAPGKERELVAAITATGGSTYYADSVKGRFTISRDNAKNTVYLQMNSLKPEDTAVYYCAKPDFYRMGYWGQGTQVTVSS | low polyreactivity
QVQLVESGGGLVQAGGSLRLSCAASGLTFGWYAMGWYRQAPRKERELVAAISWSGSTTYYADSVKGRFTISRDNAKNTVYLQMNSLKPEDTAVYYCAADVSTRPYGYYYWGQGTQVTVSS | high polyreactivity
QVQLVESGGGLVQAGGSLRLSCAASGLTFHPYAMGWYRQAPGKERELVAAISSRGTSTYYADSVKGRFTISRDNAKNTVYLQMNSLKPEDTAVYYCAARYRLYYYFRFDWGQGTQVTVSS | high polyreactivity
QVQLVESGGGLVQAGGSLRLSCAASGLTFHSYAMGWYRQAPGKERELVAAINYSGGRTDYADSVKGRFTISRDNALKSVYLQMNSLQPADTAVYFCAAQRASAYYCGQGTQVTVSS | high polyreactivity
QVQLVESGGGLVQAGGSLRLSCAASGLTFIEYAMGWYRQAPGKERELVAAISSGGRTYYADSVKGRFTISRDNPKNTVYLQMNSLKPEDTAVYYCNDRGYRRWYNYWGQGTQVTVSS | high polyreactivity
QVQLVESGGGLVQAGGSLRLSCAASGLTFIINDMGWYRQAPGKERELVAGITNGGSTYADSVKGRFTISRDNAKNTVYLQMNCLKPEDTAVYYCAVPWYDFARSIQVDEYDYWGQGTQVTVSS | low polyreactivity
QVQLVESGGGLVQAGGSLRLSCAASGLTFIKYAMGWYRQAPGKERELVADITSSGGTTYYADSVKGRFTISRDNAKNTVYLQMNSLKPEDTAVYYCAAGTRTGMNWGQGTQVTVSS | high polyreactivity
QVQLVESGGGLVQAGGSLRLSCAASGLTFIKYTMGWSRQAPGKERELVATIRASTGSTYYADSVKGRFTISRDNAKNTVYLQMNSLKPEDTAVYYCATRSYPPYYGLYGGRAYNYWGQGTQVTVSS | high polyreactivity

Sequence | polyreactivity (PSR sort gate)
QVQLVESGGGLVQAGGSLRLSCAASGLTFIPNAMGWYRQAPGKERELVAAISGTGGSTYYADSVKGRFTISRDNAKNTVYLQMNSLKPEDTAVYYCAARRRYKSGYWGQGTQVTVSS | high polyreactivity
QVQLVESGGGLVQAGGSLRLSCAASGLTFISYDMGWYRQAPGKERELVAAISSGGVLPNYADSVKGRFTISRDNAKNTVYLQMNSLKPEDTAVYYCNADTPTWPLDYWGQGTQVTVSS | low polyreactivity
QVQLVESGGGLVQAGGSLRLSCAASGLTFKDNAMGWYRQAPGKERELVAAISKGGGSTFYADSVKGRFTISRDNAKNTVYLQMNSLKPEDTAVYYCNADVGYRGGEEDYWGQGTQVTVSS | low polyreactivity
QVQLVESGGGLVQAGGSLRLSCAASGLTFKKYAMGWYRQAPGKERELVAAISRGGSTNYADSVKGRFTISRDNAKNTVYLQMNSLKPDDTAVYYCAAEGYWHVYADYYLEDYYWGQGTQVTVSS | high polyreactivity
QVQLVESGGGLVQAGGSLRLSCAASGLTFKRYAMGWYRQAPGKERELVASITGNGGSTYYADSVKGRFTISRDNAKNTFYLQMNSLKPEDTAVYYCNVGYRGWSVNSWGQGTQVTVSS | high polyreactivity
QVQLVESGGGLVQAGGSLRLSCAASGLTFKRYGMGWYIQAPGKERELVAAINWRGTSTYYADSVKGRFTISRDNAKNTVYLQMNSLKPEDTAVYYCAAVGPFYGPGEYWGQGTQVTVSS | high polyreactivity
QVQLVESGGGLVQAGGSLRLSCAASGLTFKYYAMGWYRQAPGKERELVAAISASGGRTSYADSVKGRFTISRDNAKNTFYLQMNSLKPEDTAVYYCNADITSSGPKSDYWGQGTQVTVSS | high polyreactivity
QVQLVESGGGLVQAGGSLRLSCAASGLTFKYYAMGWYRQAPGKERELVAAITSTGGRTYYADSVKGRFTISRDNAKNTVYLQMNSLKPEDTAFYYCAAYYVGSSKYDSWGQGTQVTVSS | low polyreactivity
QVQLVESGGGLVQAGGSLRLSCAASGLTFKYYAMGWYRQAPGKERELVAIISFGGGSTYYADSVKGRFTISRDNAKNTVYLQMNSLKPEDTAVYYCNARLLFKYGYWGQGTQVTVSS | high polyreactivity
QVQLVESGGGLVQAGGSLRLSCAASGLTFLFYAMGWYRQAPGKERELVASIRWSDGRTYYADSVKGRFTISRDNAKNTVYLQMNSLKPEDTAVYYCAVVPAYVYLNREYYWGQGTQVTVSS | high polyreactivity
QVQLVESGGGLVQAGGSLRLSCAASGLTFLNNAMGWYRQAPVKERELVAAISVGGSTNYADSVKGRFTISRDNAKNTVYLQMNSLKPEDTAVYYCAAVYTSASYGSWGQGTQVTVSS | low polyreactivity
QVQLVESGGGLVQAGGSLRLSCAASGLTFLYYAMGWYRQAPGKERELVASISRGSNTNYADSVKGRFTISRDNAKNTVYLQMNSLKPEDTAVYYCAVDRRPYSGHGYDYWGQGTQVTVSS | high polyreactivity
QVQLVESGGGLVQAGGSLRLSCAASGLTFNRYAMGCYRQAPGKEREFVAAISVRSGSTYYADSVKGRFTISRDNAKNTVYLQMNSLKPEDTAVYYCAAKIRKDYSIQGYDYWGQGTQVTVSS | high polyreactivity
QVQLVESGGGLVQAGGSLRLSCAASGLTFNYYAMGWSRPAPGKERELVAAISSDGRTDYADSVKGRFTISRDNAKNTVYLQMNSLKPEDTAVSYCAASWYRWGKSWRQYDYWGQGTQVTVSL | low polyreactivity
QVQLVESGGGLVQAGGSLRLSCAASGLTFPHNAMGWYRQAPGKERELVAAITSSGGSTYYADSVKGRFTISRDNAKNTVYIQMNSLKPEDTAVYYCAAKRKPRPSYRYGYWGQGTQVTVSS | high polyreactivity
QVQLVESGGGLVQAGGSLRLSCAASGLTFPIYAMGWYRQAPGKEREFVAVNTTSGGSTYYADSVKGRFTISRDNAKNTVYLQMNILKPEDTAVYYCNARPEYTYWPGYIYWGEGTQVTVSS | high polyreactivity
QVQLVESGGGLVQAGGSLRLSCAASGLTFPNNGMGWYRQAPGKERELVAAIRSSGGSTYYADSVKGRFTISRDNAKNTVYLQMNSLKPEDTAVYYCNARRRGGYVGRPRYPVAAYDYWGQGTQVTVSS | low polyreactivity
QVQLVESGGGLVQAGGSLRLSCAASGLTFPPNAMGWYRQAPGKEREFVAVISSGGGSTYYADSVKGRFTISRDNAKNTVYLQMNSLKPEDTAVYYCNTYYWYSGSPYDYWGQGTQVTVSS | low polyreactivity
QVQLVESGGGLVQAGGSLRLSCAASGLTFPQYAMGWYRQAPGKERELVAAISKTGGSTYYADSVKGRFTISRDNAKNTVYLQMNSLKPEDTAVYYCAAVESGDRGQRINYWGQGTQVTVAS | high polyreactivity
QVQLVESGGGLVQAGGSLRLSCAASGLTFPRYAMGWYRQAPGIERELVAAISYRGSRTYYADSVKGRFTISRDNAKNTVYLQMNSLKPEDSAVYYCNKVRPGYGVTYLVGYWGQGTQVTVSS | high polyreactivity
QVQLVESGGGLVQAGGSLRLSCAASGLTFPSNAMGWYRPAPGKERELVAAISKRGGRTYYADSVKGRFTISRDNAKNTVYLQMNSLKPEDTAVYYCATPYAYPGTVQYAGYNYWGQGTQVTVSS | high polyreactivity
